For one assay, the target named is T1, OsRGA1 (Oryza sativa, UniProt A2Y3B5).
T1 construct: gene GPA1; full-length cDNA in pET-28a, N-terminal His6, E. coli BL21(DE3); tag cut with thrombin for crystals; four monomers in asymmetric unit, modelled within residues 39-375
Nature of the assay: X-ray crystal structure, […] Å. The format is binding. To be noted: Mg2+; co-crystallised with 5 mM GDP, 4 °C; nucleotide site between Ras-like and helical domains.

The target of assay [1] is RGS domain of Selaginella moellendorffii RGS (SmRGS), wild-type (Selaginella moellendorffii). Kind of assay: ITC; SmGPA (syringe) injected into SmRGS (cell), 10:1; 20 °C; 50 mM Tris·HCl pH 8.0, 100 mM NaCl, 5 mM MgCl2, 100 mM GDP, 30 mM AlCl3, 20 mM NaF, 2 mM TCEP, 5% glycerol (GDP·Mg2+·AlF4- form that mimics the GTP-bound form); one-site model. On the technique in general: In ITC the heat of successive injections is recorded.

Assay [2] has as its target SmRGS E313A (Selaginella moellendorffii). The description is as above.
The target of assay [3] is SmRGS E355A (Selaginella moellendorffii). Described as above.
The target of assay [4] is SmRGS N357A (Selaginella moellendorffii). The assay is described as above.

Experimental findings from paper PMC11061236, “Structure-function analysis of plant G-protein regulatory mechanisms identifies key Gα-RGS protein interactions” (The Journal of Biological Chemistry, 2024) are described below.

T1 sequence (A2Y3B5 whole entry, the tested form may be a part): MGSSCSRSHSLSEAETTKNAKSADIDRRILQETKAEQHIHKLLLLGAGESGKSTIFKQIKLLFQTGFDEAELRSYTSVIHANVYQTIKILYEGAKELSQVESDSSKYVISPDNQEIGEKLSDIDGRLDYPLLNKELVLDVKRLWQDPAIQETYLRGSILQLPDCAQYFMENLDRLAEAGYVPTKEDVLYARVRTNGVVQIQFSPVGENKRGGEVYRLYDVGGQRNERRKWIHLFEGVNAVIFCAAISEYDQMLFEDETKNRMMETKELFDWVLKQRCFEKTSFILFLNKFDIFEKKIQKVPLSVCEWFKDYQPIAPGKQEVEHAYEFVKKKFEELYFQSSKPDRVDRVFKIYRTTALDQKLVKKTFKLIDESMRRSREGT

Regarding `Nc1nc2c(ncn2[C@@H]2O[C@H](COP(=O)(O)OP(=O)(O)O)[C@@H](O)[C@H]2O)c(=O)[nH]1` [GDP], the “X-ray crystal structure, 2.99 Å” value on OsRGA1 is “interactions with the guanine ring and ribose of GDP are comparable to GTPγS bound in SmGPA”.

Take “Selaginella moellendorffii Gα (SmGPA), wild-type (natural protein)”: the Kd in assay [1] amounted to 23 nM; in assay [2], 1050 nM; in assay [3], 16 nM; in assay [4], 6770 nM. The dH was -3.07 kcal/mol in assay [1], -3.74 kcal/mol in assay [2], -7.04 kcal/mol in assay [3] and -4.36 kcal/mol in assay [4].

For SmGPA D125A (natural protein), in assay [1], the Kd is 86 nM and the dH was -6.53 kcal/mol.

On to SmGPA E246A (natural protein), for which, in assay [1], the Kd is 18400 nM and the dH is -2.73 kcal/mol.

On to SmGPA F245A (natural protein), for which, in assay [1], the Kd was 16900 nM and the dH was found to be 3.1 kcal/mol.

As to SmGPA N216A (natural protein), in assay [1], the Kd is 55 nM and the dH was -4.81 kcal/mol.

Consider SmGPA Q214A (natural protein), for which, in assay [1], the Kd is 270 nM and the dH was -5.3 kcal/mol.

SmGPA R219A (natural protein): in assay [1], the Kd came out at 1960 nM and the dH was -6.29 kcal/mol.

For the molecule SmGPA V189A (natural protein), in assay [1], the Kd came to 130 nM and the dH was -2.89 kcal/mol.

Consider SmGPA Y126A (natural protein), for which, in assay [1], the Kd amounted to 59 nM and the dH is -7.45 kcal/mol.

The Kd is the concentration at which binding is half-saturated.
